Source: patent publication US20140011746A1 (WISCONSIN ALUMNI RESEARCH FOUNDATION, published 2014)
Values belong to the binder of their own block, whether it stands above or below them.

Columns and labels:
[1] = target: T1, EGFR (human, UniProt P00533 25-1210); assay: co-immunoprecipitation from cell lysates
T1 construct: whole, on cells; Endogenous protein in cell lysates

[2] = target: T2, α3β1 integrin (human, UniProt P26006 33-1051; P05556 21-798); assay: immunoprecipitation of native mSdc4 or mSdc4ΔC2 (FIG. 6D)
T2 construct: whole, on cells; Endogenous receptor in cell lysates

[3] = target: T3, HER2 (human, UniProt P04626 23-1255); assay: co-immunoprecipitation from mammary cell lysates
T3 construct: whole, on cells; Endogenous protein in cell lysates; also called ErbB2; HER2/Neu

T2 sequence (P26006 33-1051, chain 1 of 2): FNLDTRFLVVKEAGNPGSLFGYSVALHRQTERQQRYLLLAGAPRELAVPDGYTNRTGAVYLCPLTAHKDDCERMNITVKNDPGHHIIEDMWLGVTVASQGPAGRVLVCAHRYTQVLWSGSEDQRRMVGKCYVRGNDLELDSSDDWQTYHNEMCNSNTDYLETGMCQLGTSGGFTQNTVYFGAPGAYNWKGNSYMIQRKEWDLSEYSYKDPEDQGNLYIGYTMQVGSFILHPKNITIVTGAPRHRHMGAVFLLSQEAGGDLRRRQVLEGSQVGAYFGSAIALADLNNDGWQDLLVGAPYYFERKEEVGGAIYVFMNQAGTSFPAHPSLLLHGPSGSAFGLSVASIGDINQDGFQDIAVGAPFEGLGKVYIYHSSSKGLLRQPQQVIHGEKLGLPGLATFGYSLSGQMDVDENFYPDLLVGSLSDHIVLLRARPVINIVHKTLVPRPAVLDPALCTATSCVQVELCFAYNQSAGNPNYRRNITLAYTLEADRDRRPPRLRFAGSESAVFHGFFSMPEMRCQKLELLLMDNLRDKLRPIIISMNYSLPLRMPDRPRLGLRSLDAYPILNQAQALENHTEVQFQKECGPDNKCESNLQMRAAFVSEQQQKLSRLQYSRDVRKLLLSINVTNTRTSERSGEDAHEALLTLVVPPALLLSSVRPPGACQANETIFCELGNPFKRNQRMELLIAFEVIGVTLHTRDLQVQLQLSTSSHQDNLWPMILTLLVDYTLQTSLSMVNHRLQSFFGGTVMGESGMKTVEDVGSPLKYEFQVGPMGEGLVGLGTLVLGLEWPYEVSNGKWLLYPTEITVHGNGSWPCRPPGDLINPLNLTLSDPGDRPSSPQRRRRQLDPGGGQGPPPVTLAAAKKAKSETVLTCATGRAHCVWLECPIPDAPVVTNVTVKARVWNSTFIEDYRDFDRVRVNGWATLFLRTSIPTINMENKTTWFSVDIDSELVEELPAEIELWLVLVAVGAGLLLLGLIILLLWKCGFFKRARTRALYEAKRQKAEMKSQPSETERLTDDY
T2 sequence (P05556 21-798, chain 2 of 2): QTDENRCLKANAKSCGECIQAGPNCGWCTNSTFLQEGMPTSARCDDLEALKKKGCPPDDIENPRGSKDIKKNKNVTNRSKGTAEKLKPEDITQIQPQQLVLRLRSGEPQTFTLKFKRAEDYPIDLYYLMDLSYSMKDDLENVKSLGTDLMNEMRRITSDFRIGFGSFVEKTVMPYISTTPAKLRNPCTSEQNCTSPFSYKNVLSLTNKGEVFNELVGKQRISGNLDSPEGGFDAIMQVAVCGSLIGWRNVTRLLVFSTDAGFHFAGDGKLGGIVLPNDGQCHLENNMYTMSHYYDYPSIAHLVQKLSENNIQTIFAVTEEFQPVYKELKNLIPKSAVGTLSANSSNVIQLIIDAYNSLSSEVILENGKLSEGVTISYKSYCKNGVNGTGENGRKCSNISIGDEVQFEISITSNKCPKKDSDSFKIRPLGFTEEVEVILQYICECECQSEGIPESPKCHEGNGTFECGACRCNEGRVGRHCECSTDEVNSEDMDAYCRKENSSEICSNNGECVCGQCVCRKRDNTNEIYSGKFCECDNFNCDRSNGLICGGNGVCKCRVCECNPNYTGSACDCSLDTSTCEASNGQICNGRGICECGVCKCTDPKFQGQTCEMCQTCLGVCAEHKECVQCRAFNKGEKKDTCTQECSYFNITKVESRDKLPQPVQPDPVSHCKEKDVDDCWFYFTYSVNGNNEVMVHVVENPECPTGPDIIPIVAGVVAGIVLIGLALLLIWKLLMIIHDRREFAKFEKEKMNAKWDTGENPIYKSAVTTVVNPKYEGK

binding result [1]: no binding
B1: human syndecan-1 (receptor)
chain: QIVATNLPPEDQDGSGDDSDNFSGSGAGALQDITLSQQTPSTWKDTQLLTAIPTSPEPTGLEATAASTSTLPAGEGPKEGEAVVLPEVEPGLTAREQEATPRPRETTQLPTTHQASTTTATTAQEPATSHPHRDMQPGHHETSTPAGPSQADLHTPHTEDGGPSATERAAEDGASSQLPAAEGSGEQDFTFETSGENTAVVAVEPDRRNQSPVDQGATGASQGLLDRKEVLGGVIAGGLVGLIFAVCLVGFMLYRMKKKDEGSYSLEEPKQANGGAYQKPTKQEEFYA
notes: Endogenous Sdc1 of human cells, immunoprecipitated from cell lysates; also called hSdc1; Sdc1

binding result [2]: binds
B2: mSdc4ΔC2 mutant (receptor, mouse, UniProt O35988 24-194, looked up)
chain: ESIRETEVIDPQDLLEGRYFSGALPDDEDAGGSDDFELSGSGDLDDTEEPRPFPEVIEPLVPLDNHIPENAQPGIRVPSEPKELEENEVIPKRAPSDVGDDMSNKVSMSSTAQGSNIFERTEVLAALIVGGVVGILFAVFLILLLVYRMKKKDEGSYDLGKKPIYKKAPTN
notes: whole, on cells; Lacks the last four residues, EFYA; also called mSdc4 C2

binding result [3]: no binding
B3: human syndecan-4 (receptor, UniProt P31431 19-198, looked up)
chain: ESIRETEVIDPQDLLEGRYFSGALPDDEDVVGPGQESDDFELSGSGDLDDLEDSMIGPEVVHPLVPLDNHIPERAGSGSQVPTEPKKLEENEVIPKRISPVEESEDVSNKVSMSSTVQGSNIFERTEVLAALIVGGIVGILFAVFLILLLMYRMKKKDEGSYDLGKKPIYKKAPTNEFYA
notes: whole, on cells; Endogenous protein, immunoprecipitated as a control; also called Sdc4; human Sdc4
